These results are taken from patent publication US20200247894A1 (Regeneron, published 2020).

For test [1], the target named is T1, Human IL2Rγ extracellular domain expressed with a C-terminal mouse IgG2a Fc tag (human).
T1 construct: whole entry is the Fc-fused construct; also called hIL-2Rg-mFc
T1 chain: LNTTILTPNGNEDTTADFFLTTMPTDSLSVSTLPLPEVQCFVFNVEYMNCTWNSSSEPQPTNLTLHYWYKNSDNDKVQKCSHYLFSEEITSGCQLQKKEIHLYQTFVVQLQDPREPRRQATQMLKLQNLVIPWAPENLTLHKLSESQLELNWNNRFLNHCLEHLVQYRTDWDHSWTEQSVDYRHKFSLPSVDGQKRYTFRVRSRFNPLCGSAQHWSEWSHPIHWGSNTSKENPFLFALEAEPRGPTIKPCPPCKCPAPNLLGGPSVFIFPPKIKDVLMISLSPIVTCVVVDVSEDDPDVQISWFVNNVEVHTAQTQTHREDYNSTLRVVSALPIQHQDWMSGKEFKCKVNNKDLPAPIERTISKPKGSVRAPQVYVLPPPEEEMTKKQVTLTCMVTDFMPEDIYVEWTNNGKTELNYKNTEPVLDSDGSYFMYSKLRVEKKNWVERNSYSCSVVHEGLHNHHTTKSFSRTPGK
As to the kind of experiment: SPR Biacore 4000, anti-hFc-captured mAb, 25 C. The procedure: (§1) Equilibrium dissociation constants (KD values) for IL-2Rγ binding to purified anti-IL2Rγ monoclonal antibodies were determined using a Biacore 4000 instrument equipped with a real-time surface plasmon resonance biosensor. All binding studies were performed in 10 mM HEPES, 150 mM NaCl, 3 mM EDTA, and 0.05% v/v Surfactant Tween-20, pH 7.4 (HBS-ET) running buffer at 25° C. and 37° C. The Biacore sensor surface was first derivatized by amine coupling with a monoclonal mouse anti-human Fc antibody (GE, # BR-1008-39) to capture anti-IL2Rγ monoclonal antibodies.
(§2) The dissociation of monoclonal antibody bound IL2Rγ reagents were monitored for 8-10 minutes in HBS-ET running buffer. Kinetic association (kₐ) and dissociation (kd) rate constants were determined by fitting the real-time sensorgrams to a 1:1 binding model using Scrubber 2.0c curve fitting software. Binding dissociation equilibrium constants (KD) and dissociative half-lives (t_{1/2}) were calculated from the kinetic rate constants as: […]
For orientation: Surface plasmon resonance follows binding to a sensor surface in real time, without labels.

Test [2] concerns the target T2, Mouse IL2Rγ extracellular domain expressed with a C-terminal myc-myc-hexahistidine tag (mouse).
T2 construct: whole entry is the tagged construct; also called mIL-2Rg-MMH
T2 chain: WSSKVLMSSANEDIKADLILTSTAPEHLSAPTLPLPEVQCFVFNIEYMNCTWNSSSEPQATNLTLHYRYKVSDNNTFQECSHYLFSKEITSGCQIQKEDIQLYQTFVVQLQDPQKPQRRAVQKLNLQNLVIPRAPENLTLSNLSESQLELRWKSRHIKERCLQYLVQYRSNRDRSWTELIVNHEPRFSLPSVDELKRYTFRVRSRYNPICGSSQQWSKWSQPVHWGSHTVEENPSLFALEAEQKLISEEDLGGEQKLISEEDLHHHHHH
Put plainly: SPR Biacore 4000, anti-hFc-captured mAb, 25 C. The procedure:
as §1, §2

The target of test [3] is T3, Rat IL2Rγ extracellular domain expressed with a C-terminal myc-myc-hexahistidine tag (rat).
T3 construct: whole entry is the tagged construct; also called rIL-2Rg-MMH; rat IL-2Rg-MMH
T3 chain: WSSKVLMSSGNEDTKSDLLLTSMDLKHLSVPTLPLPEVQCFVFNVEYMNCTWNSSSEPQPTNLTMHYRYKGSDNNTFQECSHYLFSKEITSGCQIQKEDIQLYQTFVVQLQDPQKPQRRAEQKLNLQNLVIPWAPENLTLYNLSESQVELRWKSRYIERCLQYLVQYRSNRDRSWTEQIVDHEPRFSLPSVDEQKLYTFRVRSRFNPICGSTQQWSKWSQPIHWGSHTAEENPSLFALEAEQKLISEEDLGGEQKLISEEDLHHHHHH
As to the kind of experiment: SPR Biacore 4000, anti-hFc-captured mAb, 25 C. The procedure: as §1, §2

The target of test [4] is T4, Macaca fascicularis IL2Rγ extracellular domain expressed with a C-terminal myc-myc-hexahistidine tag (Macaca fascicularis).
T4 construct: whole entry is the tagged construct; also called mfIL-2Rg-MMH
T4 chain: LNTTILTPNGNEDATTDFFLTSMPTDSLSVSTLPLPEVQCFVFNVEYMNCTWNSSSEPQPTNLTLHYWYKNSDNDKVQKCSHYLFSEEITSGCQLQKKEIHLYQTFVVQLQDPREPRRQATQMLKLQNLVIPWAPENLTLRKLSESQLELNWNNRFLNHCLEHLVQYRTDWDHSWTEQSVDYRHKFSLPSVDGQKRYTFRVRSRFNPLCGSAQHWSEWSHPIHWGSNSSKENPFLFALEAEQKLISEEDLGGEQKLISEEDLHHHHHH
As to the kind of experiment: SPR Biacore 4000, anti-hFc-captured mAb, 37 C. The procedure:
as §1, §2

The target of test [5] is T1, Human IL2Rγ extracellular domain …. Put plainly: SPR Biacore 4000, anti-hFc-captured mAb, 37 C. The procedure:
as §1, §2

Test [6] has as its target T2, Mouse IL2Rγ extracellular domain …. Put plainly: SPR Biacore 4000, anti-hFc-captured mAb, 37 C. The procedure: as §1, §2
The target in test [7] is T3, Rat IL2Rγ extracellular domain …. As to the kind of experiment: SPR Biacore 4000, anti-hFc-captured mAb, 37 C. The procedure: as §1, §2

In general, Kd refers to the concentration at which binding is half-saturated. The low end stands for higher affinity, the high end for lower affinity. One may read the koff as the rate constant with which the complex falls apart. Broadly, the kon is the second-order rate constant of association.

B1: H4H13538P (antibody, human IgG4 S228P, kappa, V domains shown)
VH: EVQLVESGGGLVQPGGSLGLSCAASGFTFSNYAMSWVRQAPGKGLEWVSAVSGGGGGTYYADSVKGRFTISRDNSKNTVLLQMNSLRAEDTAVYYCARGRTGGLDYWGPGTLVTVSS
VL: DVVMTQSPLSLPVIFGQPASISCRSSQSLVDSDGNTYLNWLQQRPGQSPRRLIYEVSNRDSGVPDRFSGSGSGTDFTLTISRVEAEDVGIYYCMQGTRWPPTFGGGTKVEIKR
notes: fully human anti-IL2Rgamma mAb, human IgG4 Fc
Regarding B1, in test [1], the “50 nM Ag Bound” value turned out to be 38 RU, binding was characterised by a dissociation constant (Kd) of 0.996 nM, the koff was determined as 0.000116 s⁻¹ and the association rate constant (kon) came to 117000 M⁻¹ s⁻¹. The same molecule yielded a t1/2 in test [1] of 99 min. Moreover, in test [2], the “100 nM Ag Bound” value came to 4 RU and the binding result is reported as “no binding (tested: 100 nM)”. Further, in test [3], the “100 nM Ag Bound” value is 3 RU and the binding result was “no binding (tested: 100 nM)”. Further, in test [4], the “100 nM Ag Bound” value came to 115 RU, the Kd is 5.5 nM, the koff is 0.000932 s⁻¹ and the kon was found to be 169000 M⁻¹ s⁻¹. Moreover, the t1/2 in test [4] was determined as 12 min. Moreover, in test [5], the “50 nM Ag Bound” value came to 70 RU, binding was put at a Kd of 1.29 nM, the dissociation rate constant (koff) is 0.000187 s⁻¹ and the kon was 144000 M⁻¹ s⁻¹. In test [5], this molecule yielded a t1/2 of 62 min. Moreover, in test [6], the “100 nM Ag Bound” value came to 5 RU. The “100 nM Ag Bound” value in test [7] was found to be 5 RU.

B2: H4H12913P2 (antibody, human IgG4 S228P, kappa, V domains shown)
VH: EVQLVESGGGVVRPGGSLRLSCAASGFTFDDYGMSWVRQAPGKGLEWISSINRNGGSADYADSVKGRFTISRDNAKNSLFLQMSSLRAEDTALYHCASGEFRFDYWGQGTLVTVSS
VL: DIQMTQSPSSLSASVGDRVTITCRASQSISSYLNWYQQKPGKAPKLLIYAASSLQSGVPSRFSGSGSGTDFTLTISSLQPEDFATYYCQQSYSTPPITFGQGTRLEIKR
notes: as for B1
In the case of B2, in test [1], the “50 nM Ag Bound” value worked out at 12 RU, the Kd turned out to be 1.3 nM, the koff was determined as 5.34e-05 s⁻¹ and the association rate constant (kon) stood at 41200 M⁻¹ s⁻¹. For the same molecule, the t1/2 in test [1] amounted to 216 min. Also, in test [2], the “100 nM Ag Bound” value was determined as 1 RU and the binding result is listed as “no binding (tested: 100 nM)”. Also, in test [3], the “100 nM Ag Bound” value came out at 1 RU and the binding result is given as “no binding (tested: 100 nM)”. In test [4], the “100 nM Ag Bound” value is 20 RU, binding was characterised by a dissociation constant (Kd) of 37.3 nM, the koff worked out at 0.00296 s⁻¹ and the kon was 79300 M⁻¹ s⁻¹. The t1/2 in test [4] was 4 min. In test [5], the “50 nM Ag Bound” value amounted to 9 RU, the Kd is 2.53 nM, the dissociation rate constant (koff) was determined as 0.000185 s⁻¹ and the kon amounted to 73200 M⁻¹ s⁻¹. The molecule also came in with a t1/2 in test [5] of 62 min. Further, the “100 nM Ag Bound” value in test [6] is 0 RU. The “100 nM Ag Bound” value in test [7] is 3 RU.

B3: H4H12924P2 (antibody, human IgG4 S228P, kappa, V domains shown)
VH: EVQLVESGGGLVQPGRSLRLSCAASGFTLEDYAMHWVRQAPGKGLEWVSGISWNRGSTGYADSVKGRFTISRDNAKNSLYLQMTSLRAEDTALYYCAKGFYSMDVWGQGTTVTVSS
VL: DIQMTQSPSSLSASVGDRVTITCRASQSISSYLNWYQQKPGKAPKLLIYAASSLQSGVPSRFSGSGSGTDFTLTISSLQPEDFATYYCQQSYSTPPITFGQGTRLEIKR
notes: as for B1
Regarding B3, in test [1], the “50 nM Ag Bound” value is 28 RU, the dissociation constant Kd is 5.66 nM, the koff worked out at 0.000411 s⁻¹ and the kon worked out at 72600 M⁻¹ s⁻¹. The molecule also registered a t1/2 in test [1] of 28 min. Also, in test [2], the “100 nM Ag Bound” value is 2 RU. Also, in test [3], the “100 nM Ag Bound” value was found to be 3 RU and the binding result is reported as “no binding (tested: 100 nM)”. Further, in test [4], the “100 nM Ag Bound” value was 24 RU, binding was put at a Kd of 20.7 nM, the koff is 0.0137 s⁻¹ and the kon is 662000 M⁻¹ s⁻¹. In test [4], this molecule showed a t1/2 of 0.8 min. Also, in test [5], the “50 nM Ag Bound” value is 13 RU, the Kd came to 12.2 nM, the koff was determined as 0.000183 s⁻¹ and the kon came to 15000 M⁻¹ s⁻¹. This molecule had a t1/2 in test [5] of 63 min. Besides, in test [6], the “100 nM Ag Bound” value is -1 RU. Further, in test [7], the “100 nM Ag Bound” value was found to be 3 RU.

B4: H4H13544P2 (antibody, human IgG4 S228P, kappa, V domains shown)
VH: QLQLQESGPGLVKPSETLSLTCTVSGGSISIKNYYWGWIRQPPGKGLEWIGSIYYSGTTYYNPSLKSRVTISVDTSKNQFSLKLSSVTAADTAVYHCARHGYSYGHGWFDPWGQGTLVTVSS
VL: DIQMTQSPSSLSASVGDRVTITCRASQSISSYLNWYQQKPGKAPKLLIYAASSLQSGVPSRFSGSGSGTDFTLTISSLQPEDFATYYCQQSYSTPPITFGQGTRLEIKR
notes: as for B1
For B4, the entries for the “50 nM Ag Bound” value in test [1] and in test [5] were 63 RU and 88 RU, respectively. The values for the Kd in test [1], in test [4] and in test [5] were 2.21 nM, 52.1 nM and 6.33 nM, respectively. In addition, the off-rate constant (koff) in test [1] was 0.000246 s⁻¹; in test [4], 0.00612 s⁻¹; in test [5], 0.000801 s⁻¹. The kon was determined as 111000 M⁻¹ s⁻¹ in test [1], 118000 M⁻¹ s⁻¹ in test [4] and 126000 M⁻¹ s⁻¹ in test [5]. Besides, the t1/2 is 47 min in test [1], 1.9 min in test [4] and 14 min in test [5]. Besides, the “100 nM Ag Bound” value stood at 3 RU in test [2]; 3 RU in test [3]; 60 RU in test [4]; 4 RU in test [6]; 4 RU in test [7]. The binding result in test [2] and in test [3] was “no binding (tested: 100 nM)” in each case.

B5: H4H13541P (antibody, human IgG4 S228P, kappa, V domains shown)
VH: EVQLVESGGGVVRPGGSLRLSCAASGFIFDDYDMSWVRQPPGRGLEWVSGIDWFGGTRGYADSMKGRFTISRDNAKNSLYLQMNSLRVEDTAFYYCARGGAIVGAVTPFDYWGQGTLVTVSS
VL: DIQMTQSPSSLSASVGNRVTLSCRASQSINTYLSWYQQRPGKAPKLLIYAASSLQSGVPSRFSGSGAGTDFTLTISSLQPEDFATYYCQQSYSAPLTFGGGTKVEIKR
notes: as for B1
For B5, in test [1], the “50 nM Ag Bound” value came to 24 RU, the dissociation constant (Kd) turned out to be 1.8 nM, the koff was 8.84e-05 s⁻¹ and the on-rate (kon) came out at 49200 M⁻¹ s⁻¹. This molecule returned a t1/2 in test [1] of 131 min. In addition, in test [2], the “100 nM Ag Bound” value was 5 RU and the binding result is “no binding (tested: 100 nM)”. Also, in test [3], the “100 nM Ag Bound” value came to 4 RU and the binding result is “no binding (tested: 100 nM)”. In test [4], the “100 nM Ag Bound” value is 111 RU, the Kd came to 7.1 nM, the koff was 0.000755 s⁻¹ and the kon was 106000 M⁻¹ s⁻¹. Moreover, the t1/2 in test [4] came out at 15 min. In addition, in test [5], the “50 nM Ag Bound” value stood at 42 RU, the Kd is 2.18 nM, the koff was determined as 0.000122 s⁻¹ and the kon is 56000 M⁻¹ s⁻¹. In test [5], this molecule returned a t1/2 of 94 min. In addition, the “100 nM Ag Bound” value in test [6] worked out at 4 RU. Moreover, the “100 nM Ag Bound” value in test [7] was found to be 5 RU.
